Measurements reported in article PMC10630141, “OPUS-DSD: deep structural disentanglement for cryo-EM single-particle analysis” (Nature Methods, 2023).

Target: the molecule itself
Assay: cryo-EM structure; NEXT complex (MTR4, RBM7, ZCCHC8) purified on poly-flag-tag beads and Superdex 200, cross-linked in a 10-30% glycerol gradient with 0.2% glutaraldehyde, dialysed into 20 mM HEPES pH 7.4, 150 mM NaCl; single-particle analysis, signal of one MTR4 helicase domain subtracted

B1: ZCCHC8 (natural protein, UniProt Q6NZY4 1-707, looked up)
chain: MAAEVYFGDLELFEPFDHPEESIPKPVHTRFKDDDGDEEDENGVGDAELRERLRQCEETIEQLRAENQELKRKLNILTRPSGILVNDTKLDGPILQILFMNNAISKQYHQEIEEFVSNLVKRFEEQQKNDVEKTSFNLLPQPSSIVLEEDHKVEESCAIKNNKEAFSVVGSVLYFTNFCLDKLGQPLLNENPQLSEGWEIPKYHQVFSHIVSLEGQEIQVKAKRPKPHCFNCGSEEHQMKDCPMPRNAARISEKRKEYMDACGEANNQNFQQRYHAEEVEERFGRFKPGVISEELQDALGVTDKSLPPFIYRMRQLGYPPGWLKEAELENSGLALYDGKDGTDGETEVGEIQQNKSVTYDLSKLVNYPGFNISTPRGIPDEWRIFGSIPMQACQQKDVFANYLTSNFQAPGVKSGNKRSSSHSSPGSPKKQKNESNSAGSPADMELDSDMEVPHGSQSSESFQFQPPLPPDTPPLPRGTPPPVFTPPLPKGTPPLTPSDSPQTRTASGAVDEDALTLEELEEQQRRIWAALEQAESVNSDSDVPVDTPLTGNSVASSPCPNELDLPVPEGKTSEKQTLDEPEVPEIFTKKSEAGHASSPDSEVTSLCQKEKAELAPVNTEGALLDNGSVVPNCDISNGGSQKLFPADTSPSTATKIHSPIPDMSKFATGITPFEFENMAESTGMYLRIRSLLKNSPRNQQKNKKASE
notes: ZCCHC8 of the nuclear exosome-targeting (NEXT) complex; The complex was cross-linked with glutaraldehyde before the grids were made; ZCCHC8 forms the dimeric centre of the complex; also called ZCCHC8 center; ZCCHC8 dimeric center; source: HEK293 GnTI- cells infected with recombinant baculovirus, overexpressed separately; cell pellets of the three NEXT proteins mixed, purified as the complex …
stoichiometry N: 2
